Here are results for 16 molecules from US20240034815A1 (Xencor, published 2024).

B1: GPC3-A variable heavy variant H1.1 (D52E) with L1 (antibody, V domains shown)
VH: QVQLVQSGAEVKKPGASVKVSCKASGYTFTDYEMHWVRQAPGQGLEWMGALEPKTGDTAYSQKFQGRVTMTADKSISTAYMELSRLRSDDTAVYYCTRFYSYTYWGQGTLVTVSS
VL: DVVMTQSPLSLPVTLGQPASISCRSSQSLVHSNGNTYLHWYQQRPGQSPRLLIYKVSNRFSGVPDRFSGSGSGTDFTLKISRVEAEDVGVYFCSQNTHVPPTFGSGTKLEIK
notes: pairing with L1 follows from the library being made on humanized GPC3-A and from pair c) of claim 53; also called [GPC3]H1.1_L1
B2: XENP 23064 H1_L1.1 (antibody, human IgG1, kappa, V domains shown)
VH: QVQLVQSGAEVKKPGASVKVSCKASGYTFTDYEMHWVRQAPGQGLEWMGALDPKTGDTAYSQKFQGRVTMTADKSISTAYMELSRLRSDDTAVYYCTRFYSYTYWGQGTLVTVSS
VL: DVVMTQSPLSLPVTLGQPASISCRSSQSLVHSQGNTYLHWYQQRPGQSPRLLIYKVSNRFSGVPDRFSGSGSGTDFTLKISRVEAEDVGVYFCSQNTHVPPTFGSGTKLEIKR
notes: VH WT, VL mutation (Kabat) N28Q; also called [GPC3]H1_L1.1; VL N28Q; copies: 2 + 2
B3: GPC3-A variable light variant L1.6 (G29T) with H1 (antibody, V domains shown)
VH: QVQLVQSGAEVKKPGASVKVSCKASGYTFTDYEMHWVRQAPGQGLEWMGALDPKTGDTAYSQKFQGRVTMTADKSISTAYMELSRLRSDDTAVYYCTRFYSYTYWGQGTLVTVSS
VL: DVVMTQSPLSLPVTLGQPASISCRSSQSLVHSNTNTYLHWYQQRPGQSPRLLIYKVSNRFSGVPDRFSGSGSGTDFTLKISRVEAEDVGVYFCSQNTHVPPTFGSGTKLEIKR
notes: pairing with H1 follows from the library being made on humanized GPC3-A and from pair l) of claim 53; also called [GPC3]H1_L1.6
B4: XENP 23068 H1_L1.5 (antibody, human IgG1, kappa, V domains shown)
VH: QVQLVQSGAEVKKPGASVKVSCKASGYTFTDYEMHWVRQAPGQGLEWMGALDPKTGDTAYSQKFQGRVTMTADKSISTAYMELSRLRSDDTAVYYCTRFYSYTYWGQGTLVTVSS
VL: DVVMTQSPLSLPVTLGQPASISCRSSQSLVHSNANTYLHWYQQRPGQSPRLLIYKVSNRFSGVPDRFSGSGSGTDFTLKISRVEAEDVGVYFCSQNTHVPPTFGSGTKLEIKR
notes: VH WT, VL mutation (Kabat) G29A; also called [GPC3]H1_L1.5; VL G29A; copies: 2 + 2
B5: XENP 23070 H1_L1.7 (antibody, human IgG1, kappa, V domains shown)
VH: QVQLVQSGAEVKKPGASVKVSCKASGYTFTDYEMHWVRQAPGQGLEWMGALDPKTGDTAYSQKFQGRVTMTADKSISTAYMELSRLRSDDTAVYYCTRFYSYTYWGQGTLVTVSS
VL: DVVMTQSPLSLPVTLGQPASISCRSSQSLVHSNKNTYLHWYQQRPGQSPRLLIYKVSNRFSGVPDRFSGSGSGTDFTLKISRVEAEDVGVYFCSQNTHVPPTFGSGTKLEIKR
notes: VH WT, VL mutation (Kabat) G29K; also called [GPC3]H1_L1.7; VL G29K; copies: 2 + 2
B6: XENP 23067 H1_L1.4 (antibody, human IgG1, kappa, V domains shown)
VH: QVQLVQSGAEVKKPGASVKVSCKASGYTFTDYEMHWVRQAPGQGLEWMGALDPKTGDTAYSQKFQGRVTMTADKSISTAYMELSRLRSDDTAVYYCTRFYSYTYWGQGTLVTVSS
VL: DVVMTQSPLSLPVTLGQPASISCRSSQSLVHSHGNTYLHWYQQRPGQSPRLLIYKVSNRFSGVPDRFSGSGSGTDFTLKISRVEAEDVGVYFCSQNTHVPPTFGSGTKLEIKR
notes: VH WT, VL mutation (Kabat) N28H; also called [GPC3]H1_L1.4; VL N28H
B7: XENP 23063 H1.4_L1 (antibody, human IgG1, kappa, V domains shown)
VH: QVQLVQSGAEVKKPGASVKVSCKASGYTFTDYEMHWVRQAPGQGLEWMGALSPKTGDTAYSQKFQGRVTMTADKSISTAYMELSRLRSDDTAVYYCTRFYSYTYWGQGTLVTVSS
VL: DVVMTQSPLSLPVTLGQPASISCRSSQSLVHSNGNTYLHWYQQRPGQSPRLLIYKVSNRFSGVPDRFSGSGSGTDFTLKISRVEAEDVGVYFCSQNTHVPPTFGSGTKLEIKR
notes: VH mutation (Kabat) D52S, VL WT; also called [GPC3]H1.4_L1; VH D52S; copies: 2 + 2
B8: XENP 23065 H1_L1.2 (antibody, human IgG1, kappa, V domains shown)
VH: QVQLVQSGAEVKKPGASVKVSCKASGYTFTDYEMHWVRQAPGQGLEWMGALDPKTGDTAYSQKFQGRVTMTADKSISTAYMELSRLRSDDTAVYYCTRFYSYTYWGQGTLVTVSS
VL: DVVMTQSPLSLPVTLGQPASISCRSSQSLVHSYGNTYLHWYQQRPGQSPRLLIYKVSNRFSGVPDRFSGSGSGTDFTLKISRVEAEDVGVYFCSQNTHVPPTFGSGTKLEIKR
notes: VH WT, VL mutation (Kabat) N28Y; also called [GPC3]H1_L1.2; VL N28Y; copies: 2 + 2
B9: XENP 23072 H1_L1.9 (antibody, human IgG1, kappa, V domains shown)
VH: QVQLVQSGAEVKKPGASVKVSCKASGYTFTDYEMHWVRQAPGQGLEWMGALDPKTGDTAYSQKFQGRVTMTADKSISTAYMELSRLRSDDTAVYYCTRFYSYTYWGQGTLVTVSS
VL: DVVMTQSPLSLPVTLGQPASISCRSSQSLVHSNGYTYLHWYQQRPGQSPRLLIYKVSNRFSGVPDRFSGSGSGTDFTLKISRVEAEDVGVYFCSQNTHVPPTFGSGTKLEIKR
notes: VH WT, VL mutation (Kabat) N30Y; also called [GPC3]H1_L1.9; VL N30Y; copies: 2 + 2
B10: XENP 23061 H1.2_L1 (antibody, human IgG1, kappa, V domains shown)
VH: QVQLVQSGAEVKKPGASVKVSCKASGYTFTDYEMHWVRQAPGQGLEWMGALNPKTGDTAYSQKFQGRVTMTADKSISTAYMELSRLRSDDTAVYYCTRFYSYTYWGQGTLVTVSS
VL: DVVMTQSPLSLPVTLGQPASISCRSSQSLVHSNGNTYLHWYQQRPGQSPRLLIYKVSNRFSGVPDRFSGSGSGTDFTLKISRVEAEDVGVYFCSQNTHVPPTFGSGTKLEIKR
notes: VH mutation (Kabat) D52N, VL WT; also called [GPC3]H1.2_L1; VH D52N; copies: 2 + 2
B11: humanized GPC3-A H1_L1 (antibody, V domains shown)
VH: QVQLVQSGAEVKKPGASVKVSCKASGYTFTDYEMHWVRQAPGQGLEWMGALDPKTGDTAYSQKFQGRVTMTADKSISTAYMELSRLRSDDTAVYYCTRFYSYTYWGQGTLVTVSS
VL: DVVMTQSPLSLPVTLGQPASISCRSSQSLVHSNGNTYLHWYQQRPGQSPRLLIYKVSNRFSGVPDRFSGSGSGTDFTLKISRVEAEDVGVYFCSQNTHVPPTFGSGTKLEIK
notes: also called [GPC3]H1_L1
B12: XENP 23062 H1.3_L1 (antibody, human IgG1, kappa, V domains shown)
VH: QVQLVQSGAEVKKPGASVKVSCKASGYTFTDYEMHWVRQAPGQGLEWMGALQPKTGDTAYSQKFQGRVTMTADKSISTAYMELSRLRSDDTAVYYCTRFYSYTYWGQGTLVTVSS
VL: DVVMTQSPLSLPVTLGQPASISCRSSQSLVHSNGNTYLHWYQQRPGQSPRLLIYKVSNRFSGVPDRFSGSGSGTDFTLKISRVEAEDVGVYFCSQNTHVPPTFGSGTKLEIKR
notes: VH mutation (Kabat) D52Q, VL WT; also called [GPC3]H1.3_L1; VH D52Q; copies: 2 + 2
B13: XENP 23071 H1_L1.8 (antibody, human IgG1, kappa, V domains shown)
VH: QVQLVQSGAEVKKPGASVKVSCKASGYTFTDYEMHWVRQAPGQGLEWMGALDPKTGDTAYSQKFQGRVTMTADKSISTAYMELSRLRSDDTAVYYCTRFYSYTYWGQGTLVTVSS
VL: DVVMTQSPLSLPVTLGQPASISCRSSQSLVHSNGQTYLHWYQQRPGQSPRLLIYKVSNRFSGVPDRFSGSGSGTDFTLKISRVEAEDVGVYFCSQNTHVPPTFGSGTKLEIKR
notes: VH WT, VL mutation (Kabat) N30Q; also called [GPC3]H1_L1.8; VL N30Q; copies: 2 + 2
B14: XENP 23073 H1_L1.10 (antibody, human IgG1, kappa, V domains shown)
VH: QVQLVQSGAEVKKPGASVKVSCKASGYTFTDYEMHWVRQAPGQGLEWMGALDPKTGDTAYSQKFQGRVTMTADKSISTAYMELSRLRSDDTAVYYCTRFYSYTYWGQGTLVTVSS
VL: DVVMTQSPLSLPVTLGQPASISCRSSQSLVHSNGHTYLHWYQQRPGQSPRLLIYKVSNRFSGVPDRFSGSGSGTDFTLKISRVEAEDVGVYFCSQNTHVPPTFGSGTKLEIKR
notes: VH WT, VL mutation (Kabat) N30H; also called [GPC3]H1_L1.10; VL N30H; copies: 2 + 2
B15: XENP 23066 H1_L1.3 (antibody, human IgG1, kappa, V domains shown)
VH: QVQLVQSGAEVKKPGASVKVSCKASGYTFTDYEMHWVRQAPGQGLEWMGALDPKTGDTAYSQKFQGRVTMTADKSISTAYMELSRLRSDDTAVYYCTRFYSYTYWGQGTLVTVSS
VL: DVVMTQSPLSLPVTLGQPASISCRSSQSLVHSSGNTYLHWYQQRPGQSPRLLIYKVSNRFSGVPDRFSGSGSGTDFTLKISRVEAEDVGVYFCSQNTHVPPTFGSGTKLEIKR
notes: VH WT, VL mutation (Kabat) N28S; also called [GPC3]H1_L1.3; VL N28S; copies: 2 + 2
B16: XENP36933 H1.1_L1.67 (bispecific antibody)
heavy: QVQLVQSGAEVKKPGASVKVSCKASGYTFTDYEMHWVRQAPGQGLEWMGALEPKTGDTAYSQKFQGRVTMTADKSISTAYMELSRLRSDDTAVYYCTRFYSYTYWGQGTLVTVSSASTKGPSVFPLAPSSKSTSGGTAALGCLVKDYFPEPVTVSWNSGALTSGVHTFPAVLQSSGLYSLSSVVTVPSSSLGTQTYICNVNHKPSDTKVDKKVEPKSCDKTHTCPPCPAPPVAGPSVFLFPPKPKDTLMISRTPEVTCVVVDVKHEDPEVKFNWYVDGVEVHNAKTKPREEEYNSTYRVVSVLTVLHQDWLNGKEYKCKVSNKALPAPIEKTISKAKGQPREPQVYTLPPSREEMTKNQVSLTCDVSGFYPSDIAVEWESDGQPENNYKTTPPVLDSDGSFFLYSKLTVDKSRWEQGDVFSCSVMHEALHNHYTQKSLSLSPGK
scFv-Fc: not shown
light: DVVMTQSPLSLPVTLGQPASISCRSSQSLVHSNKNTWLHWYQQRPGQSPRLLIYKVSNRFSGVPDRFSGSGSGTDFTLKISRVEAEDVGVYFCSQNTHVPPTFGSGTKLEIKRTVAAPSVFIFPPSDEQLKSGTASVVCLLNNFYPREAKVQWKVDNALQSGNSQESVTEQDSKDSTYSLSSTLTLSKADYEKHKVYACEVTHQGLSSPVTKSFNRGEC
notes: also called [GPC3]H1.1_L1.67; VL G29K Y32W; copies: 1 + 1 + 1

In the first experiment the target is T1, His-tagged human GPC3 (human, UniProt P51654 25-559, limits assumed).
T1 construct: Captured on HIS1K sensors in the Octet assay; also called human GPC3 antigen; Glypican 3; not shown: His tag
T1 sequence (P51654 25-559 limits assumed): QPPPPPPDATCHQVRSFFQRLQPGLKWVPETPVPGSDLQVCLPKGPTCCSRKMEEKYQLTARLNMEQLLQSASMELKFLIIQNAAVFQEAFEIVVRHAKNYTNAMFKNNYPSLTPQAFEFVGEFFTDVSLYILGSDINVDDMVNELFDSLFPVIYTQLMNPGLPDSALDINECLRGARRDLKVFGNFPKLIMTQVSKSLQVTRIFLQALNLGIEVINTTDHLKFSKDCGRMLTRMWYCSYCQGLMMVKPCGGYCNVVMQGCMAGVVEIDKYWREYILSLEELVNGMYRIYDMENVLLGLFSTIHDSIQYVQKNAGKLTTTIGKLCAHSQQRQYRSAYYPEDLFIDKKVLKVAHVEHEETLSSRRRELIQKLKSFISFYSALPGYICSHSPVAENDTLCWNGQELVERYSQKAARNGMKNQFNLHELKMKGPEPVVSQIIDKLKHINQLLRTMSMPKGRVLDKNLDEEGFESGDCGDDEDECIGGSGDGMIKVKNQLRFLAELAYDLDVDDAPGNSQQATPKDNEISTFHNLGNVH
Nature of the experiment: binding assay not named for this figure; human GPC3 per legend paragraph 61.
By Kd is commonly meant the concentration at which binding is half-saturated. Low readings indicate a tighter complex, high ones a looser complex. B1 gave a Kd of 3.92 nM. Consider B2, for which binding was characterised by a dissociation constant (Kd) of 28.2 nM. Compared with the last molecule, the Kd is about 7.2-fold higher. Still for that read-out and setting: the figure for B3 is 2.85 nM. Take B4: the affinity, expressed as Kd, was 2.09 nM.

B5 gave a Kd of 2.22 nM. In turn, B6 showed a Kd of 11.7 nM. The molecule B7 returned a Kd of 3.62 nM. Compared with the last molecule, the Kd is about 3.2-fold lower. Still for that read-out and setting: in the case of B8 it was 7.43 nM; in that of B9, 1.37 nM; in that of B10, 5.81 nM. In turn, B11 came in with a Kd of 3.17 nM. B12 yielded a Kd of 3.13 nM. This Kd and that of the molecule before are within 1.5-fold of each other. As for B13, the Kd is 2.35 nM. On the same count and under the same terms, in the case of B14 it was 3.38 nM; in that of B15, 12.7 nM.

The target in the next experiment is T1, His-tagged human GPC3. Nature of the experiment: binding assay not named for this figure; Octet (BLI) is the method of Example 2B. As for the experimental part: (§1) After humanization, GPC3 binding arms were engineered with single point mutations in the variable light domain with the aim to create a ladder of GPC3 binding affinity, illustrative sequences for which are depicted in FIG. 13. 73 variable light domain variants were engineered and paired with GPC3-A H1.1 (see Example 3C for description of GPC3-A H1.1 variant). The GPC3-A variants were engineered in the 1+1 Fab-scFv-Fc bsAb format and binding for GPC3 antigen was measured using Octet, a BioLayer Interferometry (BLI)-based method. Experimental steps for Octet generally include the following: Immobilization (capture of ligand to a biosensor); Association (dipping of ligand-coated biosensors into wells containing the analyte); and Dissociation (returning of biosensors to well containing buffer). For ease of clinical development (e.g. by investigating the therapeutics in model animals), it is useful for the binding domains to be cross-reactive for cynomolgus antigen; therefore, binding to both human and cynomolgus GPC3 antigen were investigated. His-tagged human and cynomolgus GPC3 were captured on HIS1K sensors then dipped into multiple concentrations of the bispecific antibodies. The resulting dissociation constant (KD) are depicted in FIG. 23.
With B16, the Kd is 550 nM.

For another experiment, the target named is T2, His-tagged cynomolgus GPC3 (cynomolgus, UniProt A0A2K5VK50 24-558).
T2 construct: Captured on HIS1K sensors in the Octet assay; also called cynomolgus GPC3 antigen; cyno GPC3; not shown: His tag
The description is as above. As for the experimental part: as §1
In turn, B16 yielded a Kd of 600 nM.
